Measured values published in the DeepSol protein solubility set.

Experiment: soluble on expression in E. coli; label from the status in PepcDB or PDB records

Sequence | soluble on expression in E. coli
MRILNVSLLVLASSLVAFVECGRDFYKILGVAKNANANQIKKAYRKLAKELHPDRNQDDEMANEKFQDLSSAYEVLSDKEKRAMYDRHGEEGVAKMGGGGGGGHDPFSSFFGDFFGGGGGHGGEEGTPKGADVTIDLFVTLEEVYNGHFVEIKRKKAVYKQTSGTRQCNCRHEMRTEQMGQGRFQMFQVKVCDECPNVKLVQENKVLEVEVEVGADNGHQQIFHGEGEPHIEGDPGDLKFKIRIQKHPR | not soluble
MEEDSREDDFNGKIRRSLCEWLGPFEEFHDRVAKNQQTSRHGLIRSKMKPRPSPFVTLQAPPHESPSHVPVHVALQSMKNLVDERITEITHHEFADLKKGMNNVKSSATSSTDKKRKIGEDEDSQIEVKRKKESRNYIPPSTPDSGTHSTESDMIEEPNSDEVAAMLSIMKTLDTPKLSPLPKDFKVVCKEDEQPGPSSSKFPSDSSVSAASTSRESTPEPKLLGTLRIKALKPERVQKLIELAKTRGKLTDVVEVEKKVVEKVVEKQEKRVLEPLPPPPRPPSVPAVPAVPTPSRDPILGPGSGSARNSPLPPQKPANKTVQSLQGLQGSSRTMSPSPRNIRSTTPSVPSRPPSALSTHSHVETEVAAVATTSAPAEASAAVKPRFVCQWSHARLKKAQRVPFPDPSSTSTKTKGEFYHALAKDWKSKADNSKDRVTRPLNYMLSSVFFVLEAIWKADKERTTQSKMQCASIYRDTYELLGVAVFQGVRDTDDSLAVHILPRVKVIGQVMLAVMQYQMYIFRSEQAIKTMSRLDMREVSESIDIRPVSRASDSSSVHSQHLTVPTNKAVTSVAHGTPKPSPSAGSTPSGPTGAPVIPWIASIQACQNMVSMPQIVYDAYKSQLKTANGLMLASRYWEDSKTLSNIIDSGTFVKDVESIVGKSISMDMQFADLATFVLTAVGSLKAEYEEEQKQPAKPILAKVKKGLDLAIRTGTFHSDRPPPVHRPSNNTPDGKARRKQ | not soluble
GPGSMGSKYDRVKVKVHLDDEHYYILSRFILSKMLTACKLPTTAAVCVSLALKKSLVDQERLDISQRELEAATLSTMAQHGYGAAFTRLLPVMTRFFIERTPLIVFMAGSGCCGKTSMARSLSVRLNTHNIVSTDLLLDILRATHHAYPSSALRGDLVELSDERVLPCVSEHSLWLSDTLAVDDFVRLWRTLTRAIRSLVEGEVEKALVEGKVLIVEGSLIDLSLYHNYLLDSFQSQRGVIAVAFHISSDEMSRNFAVERLVSTYRSVLPLSYTDNYNGALEWVQCRLRAIEGEHLRVLRGDSSAMQLHCIDDSLCDPATGDSTSVRDLSESYSNETSSTCDTRQLRLSQDNAEIVPVYGVTNSMAASSRVCESMHGLILDRIISALKQKGPLNLEHGNVVWCQAMDSEYMSPTNDT | not soluble
MCPPYGANKFSRKKVMYVIVDIQGQQMKVEQGRRLFVHHIKDVESGASVEFDKVLLVDNNGAITVGSPLVEGAKVVCEVLTPLVKGDKVLIFHKKRRKGYRKLNGHRQQFTEILVKEVVA | not soluble
MSLSELIDNRAQRVRTLKGIIKRLHAGDAPDEVRNSLKELVCQTDYSEVMAMEQELIADGMPVEEIQGMCDLHSQVTREVLVQLAPAPVPPGHPVDTFRRENKALRESAARLQKAMNGVLETADDGDASARLLEWRQALNELQDVDKHYQRKEHLLSTCLERHGITGPSKVMWGKDDQIRELLKDTSVALRQSDTSVAELKVLAATTGAAAAGAVHEMIYKEEQILLPICLERFTADEWAEIWASSPRYGWCLVEPRQGYKPFTSEAAGRASVDGGVSLPTGALALEQLIAIFSTLPVDLTFVDANDRVAFFSEGPSRVFARSRTIVGRMVQNCHPPRSVDVVERILSDFREGRQNVAEFWLQFVGRFVHIRYFAVRSEDGRYLGTLEVTQDVGPIRALEGERRLLEYAEPSEGHHHHHH | soluble
MTSIQQRAELQRRIWQIANDVRGTVDGWDFKQYVLGALFYRFISENFAAHMEAGDDGIRYAELPDSVITPELKDDAIKTKGYFIYPSQLFANVVARANTNDSLNTDLAAIFTAIESSANGYPSEQDIKGLFADFDTTSNRLGNTVKDKNQRLAAVLKGVAELDFGPFDDAHIDLFGDAYEFLISNYAANAGKSGGEFFTPQHVSRLIARLALHGQKSVNKIYDPACGSGSLLLQAKKPFDERLIEDGFFGQESNHTTYNLARMNMFLHNINYDKFNIQLGNTLLEPHFADEKPFDAIVSNPPYSVKWIGSDDPTLINDERFAPAGVLAPKSKADFAFVLHALHYLSAKGRAAIVCFPGIFYRGGAEAKIRQYLVDNNYVETVIALAPNLFFGTTIAVNILVLSKHKPDTTTQFIDASALFKKETNNNVLLDEHIEQIMAVFASKEEVPHVAQSVPLERIAANNYNLSVSSYVEARDTREVVDIAQLNAELKTTVARIDELRKQIDAIVAEIEGEEDEA | soluble
SLAFEPPRRLVRAFGETAPEGDDWLATLPEVAERAVARRGLTVERVQVPGGRSSLVVLVRTAEGAPAVLKLAPRRARPESERAALVHWGGRGAVQVREEGDEEGVLLLERLHPDVSVRSLPEAKALLEAAGTLRRLWVEPPGSHPFETVAERTGRQAEAMRAGAAADAQVAPLVDAALAARAELLGGPSEQRLLHGTFRQSKVLAGDRMPWLAVGPDPVVGESAFDLARLVRDRVEDLIAQPSGASTTRRRIKRLAESLEVDQERLRGWTLFRAVESGVRARRVGRERDAELLLEFAGWL | soluble
MEKVAFIGLGAMGYPMAGHLARRFPTLVWNRTFEKALRHQEEFGSEAVPLERVAEARVIFTCLPTTREVYEVAEALYPYLREGTYWVDATSGEPEASRRLAERLREKGVTYLDAPVSGGTSGAEAGTLTVMLGGPEEAVERVRPFLAYAKKVVHVGPVGAGHAVKAINNALLAVNLWAAGEGLLALVKQGVSAEKALEVINASSGRSNATENLIPQRVLTRAFPKTFALGLLVKDLGIAMGVLDGEKAPSPLLRLAREVYEMAKRELGPDADHVEALRLLERWGGVEIR | soluble
MGSSHHHHHHSSGLVPRGSHMAMVELSGTVTFWDTSNEAEKATYQALAEGFEKEHPKVDVKYVNVPFGEANAKFKNAAGGNSGAPDVMRTEVAWVADFASIGYLAPLDGTPALDDGSDHLPQAAASTRYEGKTYAVPQVIDTLALFYNKELLTKAGVEVPGSVAELKTAAAEITEKTGATGLYLRGDDPYWFLPYLYGEGGDLVDEKNKTVTVDDEAGVRAYRVIKDLVDSKAAITDASDGWNNMQNAFKSGKVAMMVNGPWAIEDVKAGARFKDAGNLGVAPVPAGSAGQGSPQGGWNLSVYAGSKNLDASYAFVKYMSSAKVQQQTTEKLSLLPTRTSVYEVPSVADNEMVKFFKPAVDKAVERPWIAEGNALFEPIRLQMANVLSGETSPDEAAANTGDAYRKLLKDYK | soluble
MGSDKIHHHHHHMSFRMIEPETIDDAAFVSSTVPETDAPVWDASTDYPFSDPDNPEEVIVEVGQHAIYRAVAPSGPSHGGAVDPATDTGNTKWVKIRSTNRWRVFDEYIGDPSVQANSAQWVITAPKVIDSVSLFGLYALSVTVLVRDSGGAEVYNQTYSLQDESGVVDLYTYLTSPIILSDRLVITDIPPYAGAKVTVTAEASGEDVEVGQIVIGRKEEIGVTIDEIPLSIQDFSRKERDPDFGRVSLLEKDFADEMPVAFVFPTSRASYLKSRLASRRAKLTVYSSDGPYKANEFSVYGFYQSFQVVPRIGSESEGILELESIT | not soluble
SAALTAEHFVALQSLLKASSKDVVRQLCQESFSSSCLDSESLLDKTCSSLSVPQGEAAQLLQALHHFTRLVAFRDLSSAEAILALFPENFHQNLKNLLTKIIVEHISTWRAEAQANQISLPRLVDLDWRVDIKTSSDNISRMAVPTCLLQMKIQEDPSLCGEKPSISAVTMELSKETLDTMLDGLGRIRDQLSAVANK | soluble
MKVAIIAANGGLFDAYKVINIGTAGAAADAEVGVFFTGEGLNLIHKEAHKQWPIPEGKEHFQQGFQKANVPSIAELLQMAQEMGVKLIACQMTMDVMGLDKDQFVDGIEVAGAATFLQFAKDADITLAF | not soluble
MGSDKIHHHHHHMSNTPIELKGSSFTLSVVHLHEAEPKVIHQALEDKIAQAPAFLKHAPVVLNVSALEDPVNWSAMHKAVSATGLRVIGVSGCKDAQLKAEIEKMGLPILTEGKEKAPRPAPTPQAPAQNTTPVTKTRLIDTPVRSGQRIYAPQCDLIVTSHVSAGAELIADGNIHVYGMMRGRALAGASGDRETQIFCTNLMAELVSIAGEYWLSDQIPAEFYGKAARLQLVENALTVQPLN | not soluble
MGSSHHHHHHGSPIHDKSPRPQEFAAVDLGSNSFHMVIARVVDGAMQIIGRLKQRVHLADGLGPDNMLSEEAMTRGLNCLSLFAERLQGFSPASVCIVGTHTLRQALNATDFLKRAEKVIPYPIEIISGNEEARLIFMGVEHTQPEKGRKLVIDIGGGSTELVIGENFEPILVESRRMGCVSFAQLYFPGGVINKENFQRARMAAAQKLETLTWQFRIQGWNVAMGASGTIKAAHEVLMEMGEKDGIITPERLEKLVKEVLRHRNFASLSLPGLSEERKTVFVPGLAILCGVFDALAIRELRLSDGALREGVLYEMEGRFRHQDVRSRTASSLANQYHIDSEQARRVLDTTMQMYEQWREQQPKLAHPQLEALLRWAAMLHEVGLNINHSGLHRHSAYILQNSDLPGFNQEQQLMMATLVRYHRKAIKLDDLPRFTLFKKKQFLPLIQLLRLGVLLNNQRQATTTPPTLTLITDDSHWTLRFPHDWFSQNALVLLDLEKEQEYWEGVAGWRLKIEEESTPEIAA | soluble
MTTVLLDSHVAYWWSAEPQRLSMAASQAIEHADELAVAAISWFELAWLAEQERIQLAIPVLSWLQQLAEHVRTVGITPSVAATAVALPSSFPGDPADRLIYATAIEHGWRLVTKDRRLRSHRHPRPVTVW | soluble
MSRSSLVDPSFELSDPCPDIHALFIQFDARFFGGSLACCEVKWSPRMYACAGICSYEIRGGRGGLCSIRLSKPLLTLRPRSDLVETLLHEMIHAYLFVKERNRDRDGHGPQFQAHMHRINQAGGTNITIYHSFHDEVRLYKQHWWRCSGPCRDRRPFFGYVKRSCNRAPGPNDRWWSQHQQSCGGNFLKVKEPEGYGQGKGSKRTNDKNKSGGPALKKTITPPRVTLDDFFKKDGKNSSDNSTSKSPTKPSTSLFTGSGQKLGGSSSTSSLLNSYPKATQNSGGNRLGGTSGGVSRLLPPVNFTSPSSAPVAEQVIDLGDSDDDDFQDMDDDALEISFVASDNSVICPSCNTEVMENLIHGHLDYCLG | not soluble
MGSDKIHHHHHHVSVSDAGNFDANDVAVTFGIDKVREAFEQRRSTLPPFAPYDEEPESERPKLKATPFSWRDPATIPPRKWLYGRHLIRKFLSLDIAPGGLGKSSVKIVEALAMTTGRNLLGKDCHEGPLNVWLYNLEDPAEETERRIHAAAQWFEIGPDDVGERLFVDSGREQPICIAEETDGGARIVRPVVEAVIEQLKDRRIDVLSIDPFVSSHAISENDNRAIDMVAKEWSRIADICDCAINLVHHVRKTNGAEVTAESSRGAVSLIGAARSVVVYNRMTKEEGERAGIEPRQLGFYFRTQNDKANLAPPEAADWFRMNNVDLPNGDSVGVACPWQWPDPFDGVSTWHLKEVQKRVSQGRYRADVRSAQWVGHVIANVLDIDLEKKAGRVKDILKQWLKNDMLREVEGTDEKRNVRKFVEVGTWHTD | not soluble
